Data from doi:10.1101/2025.09.29.679184.

Assays:
[1] = biological target: N-terminally Avi-tagged Lotus SYMRK kinase 4A (Lotus japonicus); test: BLI
[2] = biological target: N-terminally Avi-tagged Lotus SYMRK kinase 4D (Lotus japonicus); test: BLI

- KD1 (2:1 heterogenous ligand fit) [1]: 2.2 µM
- KD2 (2:1 heterogenous ligand fit) [1]: 6.4 µM
- KD1 (2:1 heterogenous ligand fit) [2]: 452 nM
- KD2 (2:1 heterogenous ligand fit) [2]: 1 µM
Substance: Lotus japonicus Early Phosphorylated Protein 1a (EPP1a) WT, purified (natural protein)
